In the supplement of paper PMC10065799, “High-throughput profiling of sequence recognition by tyrosine kinases and SH2 domains using bacterial peptide display” (eLife, 2023):

Key:
SHP2-C SH2 = experiment: SH2 binding enrichment of the phosphorylated peptide, bacterial display (enrichment ratio); higher = better substrate or ligand; peptides without Tyr show the background
Grb2 SH2 = Grb2 SH2 (UniProt P62993); experiment: as above
c-Src SH2 = experiment: as above
c-Src = experiment: phosphorylation enrichment, bacterial display (enrichment ratio); higher = better substrate or ligand; peptides without Tyr show the background
MERTK = MERTK (UniProt Q12866); experiment: as above
FGFR3 = FGFR3 (UniProt P22607); experiment: as above
EPHB2 = EPHB2 (UniProt P29323); experiment: as above
c-Abl (mouse) = experiment: as above
EPHB1 = EPHB1 (UniProt P54762); experiment: as above
Jak2 = Jak2 (UniProt O60674); experiment: as above
AncSZ = experiment: as above
Fer (mouse) = experiment: as above
Fyn = Fyn (UniProt P06241); experiment: as above
Hck = Hck (UniProt P08631); experiment: as above
FGFR1 = FGFR1 (UniProt P11362); experiment: as above
Fes = Fes (UniProt P07332); experiment: as above
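Wherever SH2 binding enrichment of the phosphorylated peptide, bacterial display is given: peptide library displayed on the E. coli surface as eCPX fusions, selected cells deep-sequenced, score is each peptide's frequency after selection divided by its frequency in the input.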
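Wherever phosphorylation enrichment, bacterial display is given: 11-residue human phosphosite peptides and single-mutation variants displayed on the E. coli surface, counted by deep sequencing, each peptide's frequency after selection divided by its frequency in the unselected input library; frequency after pTyr selection over input frequency; kinase dosed for 20-30% of maximal phosphorylation in three min.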

Sequence of Hck (P08631 whole entry, looked up): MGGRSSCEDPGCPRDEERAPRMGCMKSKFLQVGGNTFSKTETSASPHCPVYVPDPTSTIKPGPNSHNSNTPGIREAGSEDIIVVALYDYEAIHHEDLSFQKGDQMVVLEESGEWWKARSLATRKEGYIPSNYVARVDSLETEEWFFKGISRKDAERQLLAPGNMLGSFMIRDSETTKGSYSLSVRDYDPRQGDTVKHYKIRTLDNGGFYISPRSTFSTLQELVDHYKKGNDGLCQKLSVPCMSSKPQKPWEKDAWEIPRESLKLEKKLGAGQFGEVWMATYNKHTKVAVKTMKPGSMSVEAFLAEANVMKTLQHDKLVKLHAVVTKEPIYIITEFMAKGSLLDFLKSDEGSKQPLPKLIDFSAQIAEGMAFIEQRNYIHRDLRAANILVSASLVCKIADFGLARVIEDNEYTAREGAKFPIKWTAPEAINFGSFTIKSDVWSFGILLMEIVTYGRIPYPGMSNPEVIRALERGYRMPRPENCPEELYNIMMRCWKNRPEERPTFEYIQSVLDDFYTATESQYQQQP
Sequence of EPHB2 (P29323 whole entry, looked up): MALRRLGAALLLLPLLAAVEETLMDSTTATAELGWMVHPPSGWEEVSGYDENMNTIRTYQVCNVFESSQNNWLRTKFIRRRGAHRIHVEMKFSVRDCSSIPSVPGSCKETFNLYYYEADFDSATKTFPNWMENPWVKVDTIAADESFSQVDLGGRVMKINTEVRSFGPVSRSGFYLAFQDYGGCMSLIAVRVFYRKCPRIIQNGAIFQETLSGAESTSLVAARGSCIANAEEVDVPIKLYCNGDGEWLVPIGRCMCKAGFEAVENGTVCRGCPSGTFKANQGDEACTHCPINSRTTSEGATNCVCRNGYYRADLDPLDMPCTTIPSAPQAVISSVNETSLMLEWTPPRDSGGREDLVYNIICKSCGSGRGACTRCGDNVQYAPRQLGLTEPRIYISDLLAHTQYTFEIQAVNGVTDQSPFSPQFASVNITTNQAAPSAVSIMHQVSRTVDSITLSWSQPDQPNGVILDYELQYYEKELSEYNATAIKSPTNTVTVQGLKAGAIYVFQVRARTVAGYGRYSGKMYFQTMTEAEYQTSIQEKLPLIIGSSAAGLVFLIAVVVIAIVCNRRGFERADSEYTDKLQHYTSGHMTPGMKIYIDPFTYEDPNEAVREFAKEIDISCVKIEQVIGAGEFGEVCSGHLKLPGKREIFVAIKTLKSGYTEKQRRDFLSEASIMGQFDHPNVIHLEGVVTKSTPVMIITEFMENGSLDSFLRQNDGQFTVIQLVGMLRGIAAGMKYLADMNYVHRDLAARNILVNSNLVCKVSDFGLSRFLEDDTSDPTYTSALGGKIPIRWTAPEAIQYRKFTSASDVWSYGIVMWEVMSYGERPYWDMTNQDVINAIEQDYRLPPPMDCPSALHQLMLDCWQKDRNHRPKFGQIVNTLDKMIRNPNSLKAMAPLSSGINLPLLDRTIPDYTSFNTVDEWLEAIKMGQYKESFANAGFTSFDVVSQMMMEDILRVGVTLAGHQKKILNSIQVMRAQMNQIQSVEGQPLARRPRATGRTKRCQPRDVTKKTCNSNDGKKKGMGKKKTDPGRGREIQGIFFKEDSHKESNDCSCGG
Sequence of FGFR3 (P22607 whole entry, looked up): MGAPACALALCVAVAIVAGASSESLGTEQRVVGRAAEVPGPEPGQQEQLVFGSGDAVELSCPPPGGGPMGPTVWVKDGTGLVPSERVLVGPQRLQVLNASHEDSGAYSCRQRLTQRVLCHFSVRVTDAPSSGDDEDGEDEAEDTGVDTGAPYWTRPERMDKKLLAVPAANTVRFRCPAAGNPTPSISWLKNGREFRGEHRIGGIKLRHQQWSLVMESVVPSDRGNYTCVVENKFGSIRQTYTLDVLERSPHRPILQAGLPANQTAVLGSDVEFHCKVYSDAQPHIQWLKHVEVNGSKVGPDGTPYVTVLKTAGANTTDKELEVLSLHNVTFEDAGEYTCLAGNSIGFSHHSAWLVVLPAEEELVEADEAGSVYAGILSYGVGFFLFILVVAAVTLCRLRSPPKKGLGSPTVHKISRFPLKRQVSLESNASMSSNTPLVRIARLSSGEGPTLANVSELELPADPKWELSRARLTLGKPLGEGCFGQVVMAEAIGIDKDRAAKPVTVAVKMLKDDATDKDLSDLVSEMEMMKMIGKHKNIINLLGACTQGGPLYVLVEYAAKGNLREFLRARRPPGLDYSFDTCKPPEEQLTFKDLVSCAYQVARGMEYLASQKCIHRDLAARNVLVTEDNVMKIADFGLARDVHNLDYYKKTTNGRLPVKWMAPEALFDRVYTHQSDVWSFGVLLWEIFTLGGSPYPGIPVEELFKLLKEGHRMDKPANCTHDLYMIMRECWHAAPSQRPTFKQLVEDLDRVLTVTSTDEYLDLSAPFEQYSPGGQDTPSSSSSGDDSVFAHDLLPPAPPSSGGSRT
Sequence of Jak2 (O60674 whole entry, looked up): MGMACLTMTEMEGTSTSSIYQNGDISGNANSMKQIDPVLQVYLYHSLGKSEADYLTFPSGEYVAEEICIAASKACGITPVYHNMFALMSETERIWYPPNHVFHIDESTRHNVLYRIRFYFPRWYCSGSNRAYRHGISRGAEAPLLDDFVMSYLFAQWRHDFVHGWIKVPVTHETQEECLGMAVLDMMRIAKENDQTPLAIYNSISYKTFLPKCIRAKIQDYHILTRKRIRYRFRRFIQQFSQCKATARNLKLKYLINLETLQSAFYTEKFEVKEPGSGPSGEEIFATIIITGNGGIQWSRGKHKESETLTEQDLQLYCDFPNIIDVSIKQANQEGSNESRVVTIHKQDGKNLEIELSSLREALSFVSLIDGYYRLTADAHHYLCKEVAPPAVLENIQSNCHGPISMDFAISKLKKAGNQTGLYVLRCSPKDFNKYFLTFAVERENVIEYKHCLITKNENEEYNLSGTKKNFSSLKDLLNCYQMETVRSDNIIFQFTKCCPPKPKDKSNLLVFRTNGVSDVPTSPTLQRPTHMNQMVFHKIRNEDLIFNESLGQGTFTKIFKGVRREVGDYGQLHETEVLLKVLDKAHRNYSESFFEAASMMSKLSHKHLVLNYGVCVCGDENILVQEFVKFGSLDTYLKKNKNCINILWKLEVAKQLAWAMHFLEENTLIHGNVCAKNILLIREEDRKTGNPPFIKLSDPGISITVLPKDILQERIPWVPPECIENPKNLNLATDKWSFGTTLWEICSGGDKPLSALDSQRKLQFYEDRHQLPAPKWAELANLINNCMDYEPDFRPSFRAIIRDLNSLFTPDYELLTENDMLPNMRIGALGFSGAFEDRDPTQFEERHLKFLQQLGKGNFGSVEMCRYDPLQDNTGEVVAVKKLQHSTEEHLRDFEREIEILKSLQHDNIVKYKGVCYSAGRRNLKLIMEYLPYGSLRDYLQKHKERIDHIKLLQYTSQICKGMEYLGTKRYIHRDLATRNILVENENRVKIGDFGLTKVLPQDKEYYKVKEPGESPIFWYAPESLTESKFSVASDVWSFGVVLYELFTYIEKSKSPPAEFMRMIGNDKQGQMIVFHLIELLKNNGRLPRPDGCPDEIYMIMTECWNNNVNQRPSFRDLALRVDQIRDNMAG
Sequence of Grb2 SH2 (P62993 whole entry, looked up): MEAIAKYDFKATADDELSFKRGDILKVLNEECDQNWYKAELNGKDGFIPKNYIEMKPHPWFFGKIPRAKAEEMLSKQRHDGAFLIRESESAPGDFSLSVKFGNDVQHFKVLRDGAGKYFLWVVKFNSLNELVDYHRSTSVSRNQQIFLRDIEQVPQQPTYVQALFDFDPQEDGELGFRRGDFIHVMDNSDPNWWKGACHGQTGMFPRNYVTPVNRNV
Sequence of EPHB1 (P54762 whole entry, looked up): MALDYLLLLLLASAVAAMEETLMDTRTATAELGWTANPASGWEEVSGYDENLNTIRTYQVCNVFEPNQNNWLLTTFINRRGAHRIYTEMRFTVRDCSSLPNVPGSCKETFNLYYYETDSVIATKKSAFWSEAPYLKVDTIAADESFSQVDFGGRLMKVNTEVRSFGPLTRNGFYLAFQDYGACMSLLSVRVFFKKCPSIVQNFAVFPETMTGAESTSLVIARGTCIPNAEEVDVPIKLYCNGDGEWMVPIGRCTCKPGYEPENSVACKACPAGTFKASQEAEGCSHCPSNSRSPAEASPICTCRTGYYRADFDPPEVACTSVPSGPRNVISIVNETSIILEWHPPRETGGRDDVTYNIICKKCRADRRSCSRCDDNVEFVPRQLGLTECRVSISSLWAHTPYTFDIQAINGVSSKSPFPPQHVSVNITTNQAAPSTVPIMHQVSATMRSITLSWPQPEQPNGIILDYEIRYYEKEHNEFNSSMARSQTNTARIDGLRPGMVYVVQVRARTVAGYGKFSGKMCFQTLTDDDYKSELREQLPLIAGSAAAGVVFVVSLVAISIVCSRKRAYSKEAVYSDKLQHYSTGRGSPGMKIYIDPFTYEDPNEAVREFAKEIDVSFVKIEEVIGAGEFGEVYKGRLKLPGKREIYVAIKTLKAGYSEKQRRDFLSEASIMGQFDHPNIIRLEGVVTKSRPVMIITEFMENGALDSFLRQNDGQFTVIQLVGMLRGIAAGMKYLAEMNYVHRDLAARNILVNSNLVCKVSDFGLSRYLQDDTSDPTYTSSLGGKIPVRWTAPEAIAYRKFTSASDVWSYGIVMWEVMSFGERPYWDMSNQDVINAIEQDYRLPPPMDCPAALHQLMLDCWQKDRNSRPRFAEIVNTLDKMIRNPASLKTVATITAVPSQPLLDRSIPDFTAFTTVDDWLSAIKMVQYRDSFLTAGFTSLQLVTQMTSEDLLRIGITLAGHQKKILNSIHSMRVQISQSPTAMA

Sequence | SH2 binding enrichment (SHP2-C SH2) | SH2 binding enrichment (Grb2 SH2) | SH2 binding enrichment (c-Src SH2) | phosphorylation enrichment (c-Src) | phosphorylation enrichment (MERTK) | phosphorylation enrichment (FGFR3) | phosphorylation enrichment (EPHB2) | phosphorylation enrichment (c-Abl (mouse)) | phosphorylation enrichment (EPHB1) | phosphorylation enrichment (Jak2) | phosphorylation enrichment (AncSZ) | phosphorylation enrichment (Fer (mouse)) | phosphorylation enrichment (Fyn) | phosphorylation enrichment (Hck) | phosphorylation enrichment (FGFR1) | phosphorylation enrichment (Fes)
TKGNEYVFRVA | 1.39 | 0.871 | 0.469 | 0.489 | 0.452 | 0.619 | 0.565 | 0.537 | 0.415 | 0.549 | 0.826 | 0.386 | 0.496 | 0.511 | 0.519 | 0.82
TKLKDYFIFNK [CCDC42_Y149_A144T_YF] | 0.595 | 0.773 | 0.724 | 0.575 | 0.401 | 0.871 | 0.353 | 0.476 | 0.52 | 0.702 | 0.685 | 0.376 | 0.419 | 0.42 | 1.05 | 0.766
TKYVAYIESQG [KDM4B_Y34_N29T] | 8.32 | 0.8 | 0.675 | 0.418 | 0.331 | 0.608 | 0.611 | 0.508 | 0.456 | 0.498 | 0.924 | 0.432 | 0.546 | 0.485 | 0.541 | 0.828
TLLPDYEDEEE [ZNF830_Y159_S154T] | 0.815 | 1.06 | 0.635 | 0.62 | 0.546 | 0.938 | 0.962 | 0.846 | 0.925 | 1.1 | 1.64 | 0.788 | 0.605 | 0.709 | 0.683 | 1.28
TNEFEYDELIV [TGM1_Y136_D132N_YF] | 0.679 | 0.804 | 0.47 | 0.669 | 0.483 | 0.887 | 0.424 | 0.951 | 0.51 | 1.37 | 1.61 | 0.709 | 0.475 | 0.747 | 0.658 | 1.61
TNFCLYLRSLE [MTM1_Y71_R69C_YF] | 0.644 | 0.773 | 0.525 | 0.612 | 0.492 | 0.995 | 0.759 | 1.27 | 0.895 | 1.7 | 1.62 | 0.847 | 0.594 | 0.567 | 0.512 | 1.69
TNIKRYHIAKG [HARS1_Y150_V155G] | 0.972 | 0.93 | 0.867 | 0.408 | 0.405 | 0.356 | 0.39 | 0.503 | 0.311 | 0.368 | 0.506 | 0.33 | 0.409 | 0.367 | 0.351 | 0.479
TNYPLYLRSLE [MTM1_Y71_R69P] | 0.862 | 0.96 | 0.433 | 0.499 | 0.551 | 0.987 | 0.727 | 0.668 | 1.01 | 1.28 | 1.18 | 0.555 | 0.603 | 0.654 | 0.671 | 1.36
TNYRFYLRSLE [MTM1_Y71_L70F] | 0.717 | 0.895 | 0.495 | 0.41 | 0.423 | 0.855 | 0.532 | 0.835 | 0.619 | 1.09 | 1.19 | 0.421 | 0.48 | 0.558 | 0.438 | 1.18
TPLSAYQIPRT [GAB2_Y324] | 0.853 | 1.04 | 0.792 | 0.435 | 0.703 | 0.317 | 0.466 | 8.8 | 0.415 | 0.615 | 0.593 | 0.586 | 0.365 | 0.29 | 0.408 | 0.539
TQNGVYSAANF [DDX5_Y535_YF] | 0.611 | 0.861 | 0.855 | 5.43 | 6.66 | 0.443 | 1.94 | 2 | 1.4 | 0.444 | 0.56 | 4.42 | 7.62 | 8.3 | 0.489 | 0.541
TQPSPYAVYLF [RPGRIP1_Y823_R827L] | 1.17 | 1.16 | 1.16 | 5.65 | 6.5 | 1.1 | 5.25 | 9.15 | 3.03 | 1.01 | 1.06 | 7.18 | 7.04 | 3.73 | 1.34 | 1.68
TQRPYYKGGGG [TYROBP_Y112] | 0.765 | 1.08 | 0.93 | 0.438 | 0.553 | 0.455 | 0.303 | 0.573 | 0.39 | 0.537 | 0.49 | 0.419 | 0.417 | 0.377 | 0.558 | 0.666
TRDVNYGWVIR [MT-CYB_Y75_I78V] | 0.604 | 1.13 | 0.654 | 0.576 | 1.12 | 0.869 | 1.27 | 0.841 | 0.947 | 1.22 | 1.16 | 1.05 | 0.647 | 0.806 | 0.612 | 1.45
TRGLEYIVPLM [CLCN4_Y548_G544R] | 0.707 | 0.835 | 0.825 | 0.541 | 0.457 | 1.04 | 0.721 | 0.89 | 0.804 | 2.02 | 1.18 | 0.409 | 0.456 | 0.493 | 1.41 | 0.78
TRSFDYMEGED [FGF7_Y58_G62E_YF] | 0.589 | 0.911 | 0.618 | 0.391 | 0.435 | 0.788 | 1.04 | 0.754 | 0.592 | 1.3 | 1.41 | 0.546 | 0.649 | 0.738 | 0.827 | 1.6
TSFQMYDKGLV [IARS2_Y231_F227S_YF] | 0.538 | 0.547 | 0.315 | 0.475 | 0.438 | 0.82 | 0.746 | 0.473 | 0.596 | 1.03 | 0.925 | 0.877 | 0.649 | 0.934 | 0.651 | 0.846
TSHKGYVAFLE [CARD9_Y76_G72S] | 0.724 | 0.877 | 2.64 | 0.354 | 0.38 | 0.554 | 0.404 | 0.602 | 0.451 | 0.676 | 0.707 | 0.315 | 0.353 | 0.38 | 0.477 | 0.762
TSNNPYFRDQA [RPGRIP1_Y846_A841T] | 0.844 | 0.789 | 0.503 | 0.721 | 0.473 | 0.544 | 0.374 | 0.628 | 0.395 | 0.901 | 0.665 | 0.396 | 0.51 | 0.454 | 0.451 | 0.796
TTGGFYSYGGG [KRT24_Y120_A115T] | 0.778 | 0.773 | 0.945 | 1.25 | 13.9 | 0.664 | 1.1 | 0.692 | 1.18 | 0.763 | 1.03 | 4.54 | 2.56 | 2.39 | 0.528 | 1.04
TTKVSYRASQP [MKI67_Y1737] | 0.83 | 0.962 | 0.533 | 0.343 | 0.352 | 0.334 | 0.337 | 0.638 | 0.3 | 0.475 | 0.602 | 0.432 | 0.311 | 0.326 | 0.355 | 0.489
TTPFNYSFIFK [RAB14_Y8_A4T_YF] | 1.82 | 1.1 | 1.86 | 0.593 | 1.93 | 0.793 | 0.734 | 0.86 | 2.1 | 0.941 | 1.2 | 0.74 | 0.705 | 0.695 | 0.725 | 1.28
TTSQPYRRLCS [USH2A_Y534_C536R] | 0.542 | 0.622 | 0.581 | 0.356 | 0.316 | 0.479 | 0.393 | 0.288 | 0.247 | 0.355 | 0.412 | 0.315 | 0.29 | 0.286 | 0.287 | 0.866
TVLEPYADPYY [ZC3H18_Y367] | 0.262 | 0.773 | 1.29 | 2.44 | 0.712 | 0.905 | 0.697 | 1.25 | 0.566 | 1.58 | 2.42 | 0.516 | 1.23 | 0.834 | 0.785 | 1.69
TYEYKYPEGSS [TGM4_Y440] | 0.701 | 0.821 | 0.854 | 0.525 | 0.414 | 0.755 | 0.492 | 0.777 | 0.526 | 1.05 | 1.32 | 0.392 | 0.394 | 0.449 | 0.517 | 1.11
TYGNLYGSRKQ [YIPF7_Y59_A54T] | 0.945 | 0.94 | 0.632 | 7.59 | 0.89 | 0.467 | 0.74 | 0.864 | 0.434 | 0.73 | 0.655 | 1.38 | 6.14 | 13.2 | 0.486 | 0.6
VAMELYVFGGV [GAN_Y471] | 0.685 | 0.808 | 0.395 | 1.13 | 0.928 | 0.781 | 0.681 | 1.05 | 0.799 | 1.37 | 1.28 | 0.574 | 0.533 | 0.535 | 0.513 | 1.64
VDTRAYFTSAT [MT-CO1_Y304] | 0.678 | 1.01 | 0.693 | 0.38 | 0.366 | 0.459 | 0.361 | 0.382 | 0.37 | 0.525 | 0.61 | 0.256 | 0.39 | 0.479 | 0.397 | 0.687
VECHPYFTQPK [AKR1D1_Y199] | 0.637 | 0.765 | 0.444 | 0.779 | 0.371 | 0.709 | 0.517 | 0.617 | 0.525 | 0.819 | 0.938 | 0.421 | 0.559 | 0.515 | 0.591 | 1.01
